Data taken from patent US20260242478A1 (published 2026).

B1: Phage-3963 (peptide)
peptide: ISAECRPPWMCIGF
notes: tested as crude clonal phage supernatant
B2: Phage-3964 (peptide)
peptide: ITRMCTPSWMCMSF
notes: as for B1
B3: Phage-3965 (peptide)
peptide: MATMCVPQWMCAGF
notes: as for B1
B4: Phage-3966 (peptide)
peptide: GSVFCIPTWMCEQS
notes: as for B1

How the values were obtained:
Anti-PSMA Fab [1] = biological target: T1, Anti-PSMA Fab (biotinylated (site not stated)); test: clonal phage ELISA on plate-captured biotinylated PSMA Fab, blocking buffer alone
T1 construct: Biotinylated PSMA Fab captured on neutravidin coated plates; also called 006 PSMA Fab

Anti-PSMA Fab [2] = biological target: T1, Anti-PSMA Fab; test: clonal phage ELISA on plate-captured biotinylated PSMA Fab, wells pre-incubated with PSMA antigen as competitor
Description: (§1) Clonal phage were harvested as crude supernatants and screened via standard ELISAs. […] Prior to the addition of clonal phage. wells were incubated with blocking buffer and PSMA antigen or blocking buffer alone. Without washing or aspirating, clonal phage supernatants were then added to the wells and incubated for a short time. Wells were then washed followed by detection of bound phage using a horse radish conjugated anti-M13 antibody.

PSMA Fab [3] = biological target: T2, PSMA Fab (biotinylated (site not stated)); test: clonal phage ELISA on biotinylated PSMA Fab captured on neutravidin, blocking buffer alone, anti-M13 HRP detection;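 also: clonal phage were tested as crude supernatants, and the signal reflects phage still bound to the wells after washing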
T2 construct: Biotinylated PSMA Fab captured on neutravidin plates for the clonal phage ELISA; also called Anti-PSMA Fab; 006 PSMA Fab

PSMA Fab [4] = biological target: T2, PSMA Fab; test: clonal phage ELISA on captured PSMA Fab pre-incubated with PSMA antigen as competitor, anti-M13 HRP detection;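 also: crude clonal phage supernatants tested by ELISA, wells first treated with blocking buffer plus PSMA antigen, bound phage read out via HRP-linked anti-M13 antibody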
Description: as §1

| Binder | Phage binding ELISA signal, Anti-PSMA Fab (Anti-PSMA Fab [1]) | phage binding ELISA signal (Anti-PSMA Fab with PSMA) (Anti-PSMA Fab [2]) | Phage binding ELISA signal, Anti-PSMA Fab (PSMA Fab [3]) | Phage binding ELISA signal, Anti-PSMA Fab in presence of PSMA antigen (PSMA Fab [4]) |
| --- | --- | --- | --- | --- |
| B1 | 0.815 | 0.0626 | – | – |
| B2 | 0.814 | 0.078 | – | – |
| B3 | 0.814 | 0.141 | – | – |
| B4 | 0.813 | 0.07 | – | – |
| GGVMCRPMWMCAGF [Phage-3967] | – | – | 0.81 | 0.0836 |
| EIGACVPDWMCRGF [Phage-3968] | – | – | 0.809 | 0.0694 |
| STLLCTPEWMCFGM [Phage-3969] | – | – | 0.789 | 0.0553 |
| SYMRCEPEWMCSGL [Phage-3970] | – | – | 0.786 | 0.121 |
| VQTRCVPAWMCDGF [Phage-3971] | – | – | 0.782 | 0.0744 |
| DARLCTPLWMCTGF [Phage-3972] | – | – | 0.781 | 0.0622 |
| QMSMCKPAWMCTGL [Phage-3973] | – | – | 0.767 | 0.0909 |
| QQVRCVPDWMCSGF [Phage-3974] | – | – | 0.762 | 0.0755 |
| EAKWCTPQWMCGGF [Phage-3975] | – | – | 0.756 | 0.0703 |
| PAQICMPAWMCHGF [Phage-3976] | – | – | 0.754 | 0.0646 |
| DARMCIPMWMCQAF [Phage-3977] | – | – | 0.742 | 0.0713 |
| GFRTCVPSWMCTGF [Phage-3978] | – | – | 0.734 | 0.0906 |
| LSVECIPVWMCNGF [Phage-3979] | – | – | 0.732 | 0.0832 |
| EYRECVPDWMCSGF [Phage-3980] | – | – | 0.731 | 0.0722 |
